# ± gives the uncertainty stated by the source.
# Test: self-splicing fitness, log relative to wild type (ln ratio); higher = more splicing; Tetrahymena group I intron in knt gene, E. coli kanamycin selection, DiMSum; sequences stand for … in CUCUCU…GGAGGGAAAAGUUAUCAGGCAUGCACCUGGUAGCUAGUCUUUAAACCAAUAGAUUGCAUCGGUUUAAAAGGCAAGACCGUCAAAUUGCGGGAAAGGGGUCAACAGCCGUUCAGUACCAAGUCUCAGGGGAAACUUUGAGAUGGCCUUGCAAAGGGUAUGGUAAUAAGCUGACGGACAUGGUCCUAACCACGCAGCCAAGUCCUAAGUCAACAGAUCUUCUGUUGAUAUGGAUGCAGUUCACAGACUAAAUGUCGGUCGGGGAAGAUGUAUUCUUCUCAUAAGAUAUAGUCGGACCUCUCCUUAAUGGGAGCUAGCGGAUGAAGUGAUGCAACACUGGAGCCGCUGGGAACUAAUUUGUAUGCGAAAGUAUAUUGAUUAGUUUUGGAGUACUCGUGGUCG
# Procedure, shortened: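 A randomised library covering all eight P1ex-region intron nucleotides was built with the intron in the knt kanamycin-resistance gene on pET-22b(+) and held in E. coli BL21(DE3). Cells were grown overnight at 37°C or 30°C on LB agar, with or without 25 μg/mL kanamycin, plus 100 μg/mL carbenicillin, 50 μM IPTG and 0.2% rhamnose, and pooled colonies were amplicon-sequenced on an Illumina HiSeq 2500. DiMSum fitness is the error-weighted combination of wild-type-normalised replicate fold changes, kanamycin versus none.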
Sequence,self-splicing fitness (ln) (30 °C),self-splicing fitness (ln) (37 °C)
ACAUAGCAAUAUUACGCCCU,-0.862 ± 0.083,-0.134 ± 0.1
UUACAGCAAUAUUACGAACG,-0.834 ± 0.1,-0.112 ± 0.13
UGUUAGCAAUAUUACGAGUC,-4.22 ± 0.42,–
ACGGAGCAAUAUUACGCGUU,–,-1.9 ± 0.21
UAUUAGCAAUAUUACGGCUA,-0.404 ± 0.15,0.399 ± 0.14
UAAGAGCAAUAUUACGAUAG,-3.46 ± 0.31,-2.12 ± 0.33
UAGAAGCAAUAUUACGCGAA,-1.61 ± 0.18,-0.748 ± 0.17
GAAGAGCAAUAUUACGCUGU,-3.82 ± 0.3,-2.6 ± 0.29
GGAGAGCAAUAUUACGAAAC,-2.48 ± 0.29,-1.36 ± 0.47
CCCUAGCAAUAUUACGAUAU,-2.92 ± 0.15,-2.97 ± 0.27
AAAUAGCAAUAUUACGUACU,0.159 ± 0.063,0.295 ± 0.091
AACGAGCAAUAUUACGGCAU,-1.91 ± 0.1,-0.446 ± 0.12
UCCAAGCAAUAUUACGGCUC,-3.84 ± 0.37,–
CCCAAGCAAUAUUACGGAAA,-2.22 ± 0.15,-3.47 ± 0.3
GUCAAGCAAUAUUACGGCGG,-4.75 ± 0.32,-2.83 ± 0.24
AAGGAGCAAUAUUACGUCGU,-2.73 ± 0.11,-0.982 ± 0.12
UCGGAGCAAUAUUACGAUAC,-3.5 ± 0.35,-0.757 ± 0.33
AACAAGCAAUAUUACGUCCA,-1.12 ± 0.068,-0.468 ± 0.076
UCAAAGCAAUAUUACGCAGG,-4.07 ± 0.2,-2.2 ± 0.14
CCAAAGCAAUAUUACGUGCC,-3.77 ± 0.35,-2.31 ± 0.35
GCCAAGCAAUAUUACGCCAG,-3.37 ± 0.21,-2.88 ± 0.24
UUGUAGCAAUAUUACGCUUA,-1.77 ± 0.25,-1 ± 0.2

Sequence,self-splicing fitness (ln) (30 °C),self-splicing fitness (ln) (37 °C)
AAAUAGCAAUAUUACGGGAA,-3.24 ± 0.28,-1.34 ± 0.19
UUAAAGCAAUAUUACGUCAU,-1.94 ± 0.18,-0.671 ± 0.17
CGAAAGCAAUAUUACGUCUC,-2.71 ± 0.42,-1.15 ± 0.26
CAACAGCAAUAUUACGAGGG,-2.38 ± 0.073,-2.2 ± 0.094
CACUAGCAAUAUUACGAUGA,-1.85 ± 0.16,-1.01 ± 0.14
GUACAGCAAUAUUACGAUUG,-5.06 ± 0.25,-2.87 ± 0.17
CAGUAGCAAUAUUACGGGGG,-3.48 ± 0.33,-2.02 ± 0.42
UAUAAGCAAUAUUACGGGCU,-2.64 ± 0.31,-1.71 ± 0.31
GCUGAGCAAUAUUACGAGCA,-1.54 ± 0.14,-1.34 ± 0.15
UGGCAGCAAUAUUACGACAU,-1.746 ± 0.014,-0.812 ± 0.033
UAGAAGCAAUAUUACGUUAA,-3.14 ± 0.16,-1.39 ± 0.15
GUGGAGCAAUAUUACGGGUU,-3.16 ± 0.18,-3.15 ± 0.48
GGGGAGCAAUAUUACGCCCA,-1.14 ± 0.19,-0.0692 ± 0.27
CAACAGCAAUAUUACGAGAU,-3.74 ± 0.2,-1.79 ± 0.15
CGCCAGCAAUAUUACGCGGG,-4.25 ± 0.2,-3.11 ± 0.24
CUCGAGCAAUAUUACGGCAG,-1.71 ± 0.13,-1.03 ± 0.15
UCUAAGCAAUAUUACGGACU,-3.51 ± 0.28,-2.84 ± 0.27
CAUGAGCAAUAUUACGACAG,-1.89 ± 0.13,-1.02 ± 0.15
CCCCAGCAAUAUUACGGGUG,-3.8 ± 0.12,-2.91 ± 0.13
GGUUAGCAAUAUUACGUCAA,-0.285 ± 0.11,-0.43 ± 0.13
UUAGAGCAAUAUUACGCUUG,-0.891 ± 0.11,0.00726 ± 0.16

# Reference: the supplement of paper PMC7877785
